We go through 6 molecules from patent publication US20180346592A1 (MOGAM INSTITUTE FOR BIOMEDICAL RESEARCH, published 2018).

Assay [1] concerns the target T1, GPC3 on the surface of hepatic cancer cell lines (SK-Hep1-GPC3 transfectant, HepG2, Huh7, Hep3B, SNU398) (human, UniProt P51654 25-554).
T1 construct: Species is not restated for the cells (hepatic cancer cell lines, or SK-Hep1 transfected with pCMV/GPC3); also called glypican 3
Nature of the assay: FACS, HepG2 cells, 1 ug antibody; lower left panel (Human naive library). On the technique in general: A flow cytometer gives signals particle by particle.

Assay [2] has as its target T1, GPC3 on the surface of hepatic cancer …. The assay can be described thus: FACS, SK-Hep1-GPC3 #9 cells, 1 ug antibody; lower left panel. The protocol: (§1) After detaching SK-Hep1-GPC3 cells by adding a TrypLE Express solution thereto, the detached SK-Hep1-GPC3 cells were put into a 50 mL tube and centrifuged at room temperature and 2000 rpm for 3 minutes to remove a culture medium, followed by washing with PBS once. The resultant was suspended using a FACS buffer, transferred to a round bottom tube, and centrifuged at room temperature and 2000 rpm for 3 minutes. A supernatant was removed, and the resultant was suitably dissolved using the FACS buffer so as to have a concentration of 4×10⁵ ea/mL. Then, a candidate antibody (1 μg) was added thereto at 4° C., and in an […] control group, a human IgG (1m, Sigma) was added instead of the candidate antibody. After 1 hour, the resultant was washed with the FACS buffer two times, a goat anti-human IgG antibody and FITC conjugated were added thereto at an amount of 1 μL per sample and bound thereto at 4° C. for 30 minutes. After collecting cells by centrifugation at 2000 rpm for 3 minutes, the cells were re-suspended by adding a fixation buffer (500 μL), and measured using a FACS calibur (FIG. 5).

For assay [3] the target is unchanged. Nature of the assay: FACS, HepG2 cells, 1 ug antibody; lower right panel.
Assay [4] has the same target. The assay can be described thus: FACS, SK-Hep1-GPC3 cells, 1 ug antibody; lower right panel. The protocol:
as §1

Assay [5] concerns the target T2, recombinant human GPC3 (Cat. No. 2119-GP-050, R&D systems) purified from HEK293 cells (human, UniProt P51654 25-559).
T2 construct: Bought protein
The assay can be described thus: SPR, Biacore T-200, GPC3 immobilised on CM5 chip, antibody flowed 0.078-5 nM. The protocol: Quantitative binding capacity (affinity) of GX102 and GX270 clone antibodies, purified anti-GPC3 antibodies, to recombinant human GPC 3 was measured using a Biacore T-200(GE Healthcare, U.S.) biosensor. After immobilizing GPC3 (Cat. No. 2119-GP-050, R&D systems) purified from HEK293 cells onto a CM5 chip (GE Healthcare) to an Rmax of 200 using an amine-carboxyl reaction, the GX102 or GX270 antibody sequentially diluted in a HBS-EP buffer solution (10 mM HEPES, pH7.4, 150 mM NaCl, 3 mM EDTA, 0.005% surfactant P20) was flowed at a flow rate of 30 μL/min in a concentration range of 0.078 nM to 5 nM for an association time of 120 seconds and a dissociation time of 1800 seconds. Dissociation of the antibody bound to GPC3 was induced by flowing 10 mM Glycine-HCl (pH1.5) at a flow rate of 30 μL/min for 30 seconds (Table 3). Affinity was obtained as kinetic rate constants (Kₒₙ and Koff) and an equivalent dissociation constant (KD) using a Biacore T-200 evaluation software (Table 4).
On the technique in general: Surface plasmon resonance follows binding to a sensor surface in real time, without labels.

For assay [6], the target named is T1, GPC3 on the surface of hepatic cancer …. Nature of the assay: FACS, SK-Hep1-GPC3 #9 cells, 1 ug antibody; upper right panel. The protocol: as §1
For assay [7] the target is unchanged. Nature of the assay: FACS, HepG2 cells, 1 ug antibody; upper right panel (Synthetic library).

B1: clone GX122 (scFv, V domains shown)
VH: EVQLVESGAEVKKPGASVKVSCKASGYTFTSYYMHWVRQAPGQGLEWMGIINPSGGSTSYAQKFQGRVTMTRDTSTSTVYMELSSLRSEDTAVYYCARDGGSSPDIWGQGTMVTVSS
VL: SYELTQPPSVSVSPGQTARITCSGDALPKKYAYWYQQKSGQAPVLVIYEDKKRPSEIPERFSGSSSGTMATLTITGAQVDDEADYYCYSIDRSGSRGVFGGGTKLTVLG
notes: scFv library clone tested as culture supernatant
Turning to B1, the “Mean, FL2-H” value in assay [1] turned out to be 52.2; in assay [2], 11.6.

B2: GX270 clone antibody (purified anti-GPC3 antibody) (antibody, V domains shown)
VH: QVQLVQSGAEVKKPGASVKVSCKTSGYTFTSSYMHWVRQAPGQGLEWMGIINPNSRGTNYAQKFQGRVTMTSDTSISTAYMELSSLISDDTAVYYCASSSGDYPDYWGQGTLVTVSS
VL: SYELTQPPSVSVSPGQTARIACSGDALPKHYAYWYQQKSGQAPVLVVYEDKKRPAGIPERFSGSSSGTVATLTISGAQVEDEAHYYCYSTDTSGNHRVFGGGTKLTVLG
notes: Purified antibody; also called GX270 antibody; GX270 candidate antibody
Usually Kd stands for a measure of binding affinity in units of concentration. With B2, the “Mean, FL2-H” value worked out at 14.5 in assay [3] and 174 in assay [4]. Further, in assay [5], the Kd was determined as 0.07 nM.

B3: clone GS017 (scFv, V domains shown)
VH: EVQLLESGGGLVQPGGSLRLSCAASGFTFSGYAMSWVRQAPGKGLEWVSGISPGDGSTYYADSVKGRFTISRDNSKNTLYLQMNSLRAEDTAVYYCARVARMCQGWRCSYADGMDVWGQGTLVTVSS
VL: QSVLTQPPSASGTPGQRVTISCTGSSSNIGNNSVYWYQQLPGTAPKLLIYSDSHRPSGVPDRFSGSKSGTSASLAISGLRSEDEADYYCGTWDSSLSGYVFGGGTKLTVLG
notes: as for B1
As for B3, the “Mean, FL2-H” value in assay [6] worked out at 27.5; in assay [7] it was 12.2.

B4: clone GN337 (scFv, V domains shown)
VH: EVQLVESGPGLVKPSQTLSLTCTVSGGSVSSGGYHWNWIRQHPGKGLEWIGYIFNSGNTDYNPSLRSRLTISQDTSKNQFSLKLSSVTAADTAVYYCARHRSRLLRWFDYWGQGTMVTVSS
VL: DVVLTQSPSSLSAFVGDRVTITCQASQDIRKYLNWFQQKPGKAPKLLIYDASTLETGVSSRFSGSGSGTHFNLVISSLEPEDSATYYCQQHDFVPRTFGQGTKLEIKR
notes: as for B1
Consider B4, for which the “Mean, FL2-H” value in assay [1] is 30.8; in assay [2] it was 3.81.

B5: GX102 clone antibody (purified anti-GPC3 antibody) (antibody, V domains shown)
VH: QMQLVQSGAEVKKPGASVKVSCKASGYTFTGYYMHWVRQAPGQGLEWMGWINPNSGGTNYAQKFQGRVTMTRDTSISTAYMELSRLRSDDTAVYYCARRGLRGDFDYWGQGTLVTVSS
VL: GQSVLTQPPSASETPGQKVTISCSGSSSNIGTNHVFWYQQLPGTAPKLLIYRNNLRPSGVPDRFSGSKSGTSASLAISGLRSEDEADYYCAAWDDSLSWVFGGGTKLTVLG
notes: Purified antibody; also called GX102 antibody; GX102 candidate antibody
B5: the entries for the “Mean, FL2-H” value in assay [3] and in assay [4] were 18.7 and 317, respectively. In addition, in assay [5], the Kd amounted to 0.0092 nM.

B6: clone GS013 (scFv, V domains shown)
VH: EVQLLESGGGLVQPGGSLRLSCAASGFTFSNYAMSWVRQAPGKGLEWVSSISSGGGSTYYADSVKGRFTISRDNSKNTLYLQMNSLRAEDTAVYYCARKKSQFDYWGQGTLVTVSS
VL: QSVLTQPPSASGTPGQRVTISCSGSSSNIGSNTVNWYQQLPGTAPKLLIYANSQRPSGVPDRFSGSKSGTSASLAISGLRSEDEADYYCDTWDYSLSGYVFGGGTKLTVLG
notes: as for B1
In the case of B6, the “Mean, FL2-H” value in assay [6] is 7.43; in assay [7] it was 6.07.
